# Data from publication doi:10.1101/2024.10.29.618823 (bioRxiv, 2024).
# Where two headings read alike, the source gives them in different places.
# B1: Csy3 (natural protein)
# chain: MSKPILSTASVLAFERKLDPSDALMSAGAWAQRDASQEWPAVTVREKSVRGTISNRLKTKDRDPAKLDASIQSPNLQTVDVANLPSDADTLKVRFTLRVLGGAGTPSACNDAAYRDKLLQTVATYVNDQGFAELARRYAHNLANARFLWRNRVGAEAVEVRINHIRQGEVARAWRFDALAIGLRDFKADAELDALAELIASGLSGSGHVLLEVVAFARIGDGQEVFPSQELILDKGDKKGQKSKTLYSVRDAAAIHSQKIGNALRTIDTWYPDEDGLGPIAVEPYGSVTSQGKAYRQPKQKLDFYTLLDNWVLRDEAPAVEQQHYVIANLIRGGVFGEAEEK
# Key:
# Experiment in all cases: cryo-EM structure
# cryo-EM structure [1] = target: the molecule itself
# cryo-EM structure [2] = target: the molecule itself; remark: listed apart in the source
# cryo-EM structure [3] = target: the molecule itself; remark: listed apart in the source
protein,measurement,setting,value
B1,stoichiometry N,cryo-EM structure [1],6
same,stoichiometry N,cryo-EM structure [2],5
same,stoichiometry N,cryo-EM structure [3],4
